Source: patent US20050221381A1, “Method for isolating ligands” (priority 2002, published 2005)
Entries after “also recorded” stand apart in the source; their conditions may differ.

Experiments:
CMV = conditions: cited from earlier work
[1] = in vivo; cited from earlier work
[2] = target: T1, soluble DRB1*0404 molecules (Homo sapiens, UniProt P01903+P01911, A100R/A169T/F76Y/I96L/K127E/L162R/M171V/N62H/P40V/Q125Y/R42H/S133A/S149N/S66Y/V209L/W38E); assay: Peptide binding assay, SDS-stability assay; parameters: key: −: no binding; +/−: weak binding; +: intermediate binding; ++: strong binding; conditions: individual pp65 15mer
T1 construct: Soluble HLA class I A*0201 and HLA class II DRA1*0101/DRB1*0101/Ii, DRA1*0101/DRB1*0401/Ii and DRA1*0101/DRB1*0404/Ii molecules were expressed in SC-2 cells; made in house; host or cells: SC-2 cells

[3] = target: T1, soluble DRB1*0404 molecules; assay: Peptide binding assay, SDS-stability assay
[4] = target: T2, soluble DRB1*0401 molecules (DR4) (Homo sapiens, UniProt P01903+P01911, A100K/A169T/F76Y/I96L/K127E/L162R/M171V/N62H/P40V/Q125Y/R42H/S133A/S149N/S66Y/V115G/V209L/W38E); assay type: binding; parameters: key: +++: high binding affinity; ++: moderate binding affinity; +: low binding affinity; −: no binding; conditions: individual pp65 15mer, SDS-stability assay
T2 construct: Soluble HLA class I A*0201 and HLA class II DRA1*0101/DRB1*0101/Ii, DRA1*0101/DRB1*0401/Ii and DRA1*0101/DRB1*0404/Ii molecules were expressed in SC-2 cells; made in house; host or cells: SC-2 cells

[5] = test system: PBMC (CD4 and CD8 positive T-cell compartments); assay: Intracellular IFN-γ staining combined with surface staining for CD4, CD8, CD69 (FACS); assay type: cell-based, human; conditions: donor 10788, peptide 80 μg/ml (FIG. 11)
Experimental: To distinguish between CD8-positive CTL mediated or CD4-positive HTL mediated reactivity, intracellular cytokine staining combined with staining for surface markers was performed: after thawing, PBMNC were kept overnight (37° C., 5% CO2) in RPMI1640 with 10% human serum type AB (BioWhittaker). Next day aliquots of 2 million PBMNC were incubated with peptide (80 μg/ml) or Concanavalin A (SIGMA). After 1 h, 10 μg/ml brefeldin A (SIGMA) were added and incubation was continued for 5 hours. Surface staining for CD4 (phycoerythrin), CD8 (cychrome), CD69 (allophycocyanine) was done with antibodies labelled as indicated (Pharmingen, San Diego, Calif., USA). After fixation with 1% para-formaldehyde in PBS, cells were permeabilized by incubating for 15 min in 0.5% BSA/0.1% Na-azide/0.1% saponin in PBS. Intracellular cytokines were stained with anti-IFN-γ (FITC) antibody 4S.B3 (Pharmingen). Samples (100,000 events in the lymphocyte gate) were read on a FACScalibur (Becton Dickinson).
FIG. 11: Confirmation of simultaneous CD4+ and CD8+ T-cell responses against CMVpp65 15mers 469, 470 by intracellular IFN-γ staining. PBMC from 2 donors (10687, 10788) were stimulated with either ConA as positive control (1st column), 15mers containing both putative class I and class II epitopes (columns 2 and 3) or medium as negative control (right column). Cells were stained for intracellular IFN-γ (x-axis) or surface the T-cell differentiation markers CD4 or CD8 (y-axis). Percentage in upper-right quadrant is indicated, numbers significant over background are shown boldface.

[6] = test system: PBMC from CMV seropositive donors; assay type: cell-based, human
[7] = test system: DRB1*0401, DRB1*0101, DRB1*0404, DRB1*0701 and DRB1*1101; assay: Binding to soluble HLA molecules of different allels (promiscuity); parameters: species or system human
[8] = test system: CMV mutants resistant to Ganciclovir, Cidofuvir and Foscarnet; conditions: cited from earlier work
[9] = test system: CD8+ T-cells, HLA-A*0201 positive T2 cells; conditions: interferon-gamma ELIspot
HLA-A2 = HLA-A2 (Homo sapiens, UniProt P04439, D140Y/D185E/D98H/E176V/E277Q/G131W/G231S/I119V/I121R/I166T/I218V/L300P/L318F/N151K/N90K/P208A/P217A/Q86G/Q94H/R138H/R169H/T345S); conditions: cited from earlier work
isolated CD4+ T cells = assay: Synthetic IFN-γ Elispot assay with sHLA DRB1*0401 and anti CD28; assay type: cell-based, human; conditions: sHLA DRB1*0401 loaded with peptide, vs negative control peptide p84 (FIG. 5a)
[10] = target: T2, soluble DRB1*0401 molecules (DR4); assay type: binding; parameters: key to DR4 binding: +++: high binding affinity; ++: moderate binding affinity; +: low binding affinity; −: no binding; conditions: SDS-stability assay
[11] = target: T3, soluble DRB1*0401 molecules (Homo sapiens, UniProt P01903+P01911, A100K/A169T/F76Y/I96L/K127E/L162R/M171V/N62H/P40V/Q125Y/R42H/S133A/S149N/S66Y/V115G/V209L/W38E); assay: Epitope capture from peptide mixtures, gel filtration and MALDI-TOF MS of bound peptides; assay type: binding
T3 construct: Soluble HLA class I A*0201 and HLA class II DRA1*0101/DRB1*0101/Ii, DRA1*0101/DRB1*0401/Ii and DRA1*0101/DRB1*0404/Ii molecules were expressed in SC-2 cells; made in house; host or cells: SC-2 cells
Text: After peptide binding reaction with soluble HLA molecules, HLA-peptide complexes were separated from free peptides by gel-filtration chromatography on Superdex-200 column (AKTAdesign, Amersham Pharmacia Biotech). HLA-containing fractions were collected, and bound peptides were reconstituted from the complexes by adding TFA to the final concentration of 1%. Peptides were desolted by Ziptip purification and analyzed by MALDI-TOF mass-spectrometry.
Second, the ability to capture peptides binding to HLA class II molecules from the mixture of two high affinity ligands was tested. The binding reaction contained 1 μM of soluble DRB1*0401 molecules and 5 μM of each YAR and 1242 peptide. After the HLA-peptide complexes were formed, they were separated from the excess of free peptides by gel filtration chromatography. Fractions containing MHC molecules were collected. Bound peptides were eluted from the complexes and analyzed by mass-spectrometry.
Third, it was investigated if the binding capacity of the high affinity ligand would be influenced by the excess of low affinity peptide. […] Peptide binding was assessed by SDS-stability assay and verified by MS analysis (FIG. 3).
The final concentration of each peptide in binding reaction was 5 μM, except 1236 added in 55 μM, meaning that the concentration of each individual binding peptide was 20-fold lower than final concentration of all peptides. DRB1*0401 molecules were added to 1 μM. The formation of MHC-peptide complexes was evaluated as described above, using single peptides as controls (FIG. 4). […] The result of this analysis yielded the two peptides with highest binding affinities: 1242 and YAR (see Table 1). The peptides with moderate and/or low affinities were not found in the complexes, probably due to the high concentration of strong competitors used in this assay.

Question: For `CC(C)[C@H](N)C(=O)OCC(CO)OCn1cnc2c(=O)nc(N)[nH]c21` (some centres unmarked) [Valganciclovir], which “Incidence of CMV disease” value (CMV; kidney transplant patients, given for three months) is on record?
Answer: reduced the incidence of CMV disease

Question: What about the “Proportion of patients with biopsy-proven rejection” value (CMV; six months after transplantation) of the same molecule?
Answer: significant reduction

Question: And the Oral bioavailability [1]?
Answer: markedly increased

Question: For DEDSDNEIHNPAVFT [Peptide 469], which “Binding to DRB1*0404” value [2] is on record?
Answer: +/−

Question: What about the “Binding to DRB1*0404 (in words)” value [3] of the same molecule?
Answer: found to bind to DRB1*0404; also recorded: weakly binding to DRB1*0404

Question: And the “Binding to DRB1*0401” value [4]?
Answer: −

Question: What about the “Intracellular IFN-γ in CD4 and CD8 positive T-cell compartments” value [5] of the same molecule?
Answer: significant IFN-γ secretion in both the CD8 and CD4 positive T-cell compartments

Question: And the “Induction of IFN-gamma secretion in T cells / PBMC from CMV seropositive donors” value [6]?
Answer: induce IFN-gamma secretion; also recorded: can induce functional, IFN-gamma secreting T cells in humans; also recorded: induce INF-gamma production

Question: For EDSDNEIHNPAVFTW [Peptide 470], which “Affinity for several HLA molecules (promiscuity)” value [7] is on record?
Answer: affinity for at least two HLA molecules

Question: What about the “Binding to DRB1*0404” value [2] of the same molecule?
Answer: +/−

Question: And the “Binding to DRB1*0404 (in words)” value [3]?
Answer: found to bind to DRB1*0404; also recorded: weakly binding to DRB1*0404

Question: And the “Binding to DRB1*0401” value [4]?
Answer: −

Question: And the “Intracellular IFN-γ in CD4 and CD8 positive T-cell compartments” value [5]?
Answer: significant IFN-γ secretion in both the CD8 and CD4 positive T-cell compartments

Question: And the “Induction of IFN-gamma secretion in T cells / PBMC from CMV seropositive donors” value [6]?
Answer: induce IFN-gamma secretion; also recorded: can induce functional, IFN-gamma secreting T cells in humans; also recorded: induce INF-gamma production

Question: For Fomivirsen, which “Efficacy against multidrug resistant mutants” value [8] is on record?
Answer: effective against such mutants

Question: What does the source list for RLLQTGIHV?
Answer: Confirmation as HLA-A*0201 epitope / induction of functional T-cells (in words) [9]: induce functional T-cells; Binding to HLA-A2 / stabilisation of HLA-A2/β2m/peptide complex (HLA-A2): can stabilize; also recorded: has been demonstrated

Question: For YNINISLPSYYPDQKSL [Peptide 1242], which “Number of induced IFN-γ spots” value (isolated CD4+ T cells) is on record?
Answer: significantly above the spontaneous IFN-γ secretion

Question: And the “Binding to soluble DRB1*0401 molecules (in words)” value [10]?
Answer: highest

Question: And the DR4 binding ([10]; direct binding of individual peptides, compared with YAR and HA306-318)?
Answer: +++

Question: And the “Formation of stable MHC-complexes in presence of excess low affinity peptide” value ([11]; 1242 5 to 50 μM, 100 μM peptide 1236 (2-20 fold excess), 1 μM DRB1*0401)?
Answer: does not impede the formation of stable MHC-complexes

Question: And the “Peptides captured from pool of 10 peptides, MS analysis” value ([11]; each peptide 5 μM, 1236 55 μM, DRB1*0401 1 μM)?
Answer: captured by DR4 molecules

Question: What about the “Peptides found in complexes with MHC molecules by MS” value ([11]; mixture of two ligands, 5 μM each, 1 μM DRB1*0401) of the same molecule?
Answer: revealed in the complexes with MHC molecules
